The values that follow come from paper PMC12785156, “Hydroxylation of HPPD facilitates its PUB11-mediated ubiquitination and degradation in response to oxidative stress in Arabidopsis” (Plant Communications, 2025).

Usually Kd stands for the constant that tells how readily two partners part at equilibrium. Higher therefore signals weaker binding.

B1: GST-PUB11-ARM (domain or fragment)
chain: QPAGYINGRTKNSGDMSVIRALVQRLSSRSTEDRRNAVSEIRSLSKRSTDNRILIAEAGAIPVLVNLLTSEDVATQENAITCVLNLSIYENNKELIMFAGAVTSIVQVLRAGTMEARENAAATLFSLSLADENKIIIGGSGAIPALVDLLENGTPRGKKDAATALFNLCIYHGNKGRAVRAGIVTALVKMLSDSTRHRMVDEALTILSVLANNQDAKSAIVKANTLPALIGILQTDQTRNRENAAAILLSLCKRDTEKLITIGRLGAVVPLMDLSKNGTERGKRKAISLLELLRKACQ
modifications: GST carrier omitted. Limits not printed: ARM region taken as everything after the U-box (240-314) to the C-terminus
B2: His-AtHPPD (Arabidopsis thaliana 4-hydroxyphenylpyruvate dioxygenase) (enzyme, UniProt P93836 1-445, looked up)
chain: MGHQNAAVSENQNHDDGAASSPGFKLVGFSKFVRKNPKSDKFKVKRFHHIEFWCGDATNVARRFSWGLGMRFSAKSDLSTGNMVHASYLLTSGDLRFLFTAPYSPSLSAGEIKPTTTASIPSFDHGSCRSFFSSHGLGVRAVAIEVEDAESAFSISVANGAIPSSPPIVLNEAVTIAEVKLYGDVVLRYVSYKAEDTEKSEFLPGFERVEDASSFPLDYGIRRLDHAVGNVPELGPALTYVAGFTGFHQFAEFTADDVGTAESGLNSAVLASNDEMVLLPINEPVHGTKRKSQIQTYLEHNEGAGLQHLALMSEDIFRTLREMRKRSSIGGFDFMPSPPPTYYQNLKKRVGDVLSDDQIKECEELGILVDRDDQGTLLQIFTKPLGDRPTIFIEIIQRVGCMMKDEEGKAYQSGGCGGFGKGNFSELFKSIEEYEKTLEAKQLVG
notes: 4-hydroxyphenylpyruvate dioxygenase (AtHPPD), Arabidopsis thaliana, full-length CDS in pET-15b; For MST the His tag was labelled with RED-tris-NTA 2nd generation dye; A low level of self-hydroxylation of phenylalanines is reported also for the untreated protein; also called AtHPPD-WT; His-labeled AtHPPD; source: E. coli BL21(DE3), purified; not shown: His6, N-terminal, kept

In assay [1] the target is B2. Nature of the assay: MST; His-AtHPPD (or mutants) labelled with RED-tris-NTA 2nd generation, constant 400 nM; GST-PUB11-ARM serially diluted; 25°C; 20 mM HEPES pH 8.0, 100 mM NaCl; three repeats. To be noted: both partners purified.
Assay [2] deals with T1, full-length MBP-PUB11 (Arabidopsis thaliana, UniProt Q8GUG9 1-612).
T1 construct: U-box E3 ubiquitin ligase PUB11, Arabidopsis thaliana, full-length CDS in pMAL-C2x; not shown: MBP, N-terminal, kept
T1 sequence (looked up): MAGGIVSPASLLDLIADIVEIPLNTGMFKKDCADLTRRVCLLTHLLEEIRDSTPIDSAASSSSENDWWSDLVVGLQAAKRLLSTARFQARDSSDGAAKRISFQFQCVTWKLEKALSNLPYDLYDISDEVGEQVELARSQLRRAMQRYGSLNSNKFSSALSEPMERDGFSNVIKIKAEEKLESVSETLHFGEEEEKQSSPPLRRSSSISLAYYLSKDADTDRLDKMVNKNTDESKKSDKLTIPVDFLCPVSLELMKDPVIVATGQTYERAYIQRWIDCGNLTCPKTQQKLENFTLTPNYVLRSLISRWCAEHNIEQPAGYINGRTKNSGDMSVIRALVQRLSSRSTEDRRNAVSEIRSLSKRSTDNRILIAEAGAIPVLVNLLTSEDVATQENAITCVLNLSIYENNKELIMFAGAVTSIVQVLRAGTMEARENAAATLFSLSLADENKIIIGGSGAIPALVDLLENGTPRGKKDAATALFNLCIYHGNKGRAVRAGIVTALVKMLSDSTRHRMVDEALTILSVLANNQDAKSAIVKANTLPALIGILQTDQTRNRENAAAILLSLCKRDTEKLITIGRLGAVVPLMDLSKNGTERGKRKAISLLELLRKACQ
The experiment in a line: pull-down; purified MBP-PUB11 full length or truncated variants (or MBP alone) with purified His-AtHPPD, 4°C; immunoblot with anti-His and anti-MBP. To be noted: both partners purified. (A western blot detects proteins with antibodies after separation by electrophoresis.)

In the case of B1, the Kd in assay [1] was found to be 7.42 µM.
For the molecule B2, the binding result in assay [2] is on record as “binds”.
